Data as given in publication PMC12559223, “Structural basis of apoptosis induction by the mitochondrial voltage-dependent anion channel” (Nature Communications, 2025).
One block for each molecule: values may come before it. Positions of bridges follow the written chain, without caps; N, C: chain ends. Non-standard residues stand in square brackets, D forms with d. Residues, ends and D or L forms follow the SMILES beside them. S5 = C=CCCC[C@](C)(N)C(=O)O

Assays:
BclxLΔLT = biological target: T1, BclxLΔLT (Homo sapiens, UniProt Q07817, DEL45-84); test: NMR-detected affinity measurement, alanine scanning of VDAC1-N peptides; type: binding; conditions: NMR CSP titration into 100 µM 2H,15N BclxLΔLT, 20 mM NaPi pH 7.0, 50 mM NaCl; one-site model; mean of individual NMR resonances as probes (n = 3)
T1 construct: BclxLΔLT (residues 1–44 and 85–213); inferred from Ni-NTA purification; made in house; host or cells: E. coli BL21 (DE3)
Excerpt: The resulting chemical shift perturbation was plotted against the peptide concentration to extract KD values for each peptide using a one-site binding model using OriginPro (OriginLab) for data fitting.

Bak-BclxL complex = test: Liposome permeabilization (pore-forming) assay, cBid-activated Bak inhibited by BclxL; type: biochemical, human; conditions: increasing concentrations of peptide (10-100 µM); 50 nM BakΔTM, 40 nM cBid, 50 nM BclxLΔTM
[1] = biological target: human BclxLΔLT (BclxL without the flexible loop and the transmembrane helix) (human) (UniProt Q07817); test: ITC; MicroCal PEAQ-ITC, 20 °C; BclxLΔLT in the cell (250 µM for the linear, 50 µM for the stapled peptide), peptide in the syringe (500 µM stapled); 10 mM NaPi pH 7.0, 50 mM NaCl, 0.5 mM EDTA, 1 mM DTT
[2] = biological target: human BclxLΔTM (soluble domain of BclxL, transmembrane helix deleted) (human) (UniProt Q07817)
[3] = biological target: T2, human BclxLΔLT (BclxL without the flexible loop and the transmembrane helix), Q07817-1; test: NMR-detected affinity measurements (alanine scanning); conditions: chain shown with the change;; parent: est. 0.2 mM; read off a plot
T2 chain: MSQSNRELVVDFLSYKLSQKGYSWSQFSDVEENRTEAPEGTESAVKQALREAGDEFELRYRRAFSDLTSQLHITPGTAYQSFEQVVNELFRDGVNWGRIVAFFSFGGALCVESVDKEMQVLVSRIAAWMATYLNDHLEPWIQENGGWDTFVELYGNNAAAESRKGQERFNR

[4] = biological target: human BclxLΔTM (soluble domain of BclxL, transmembrane helix deleted) (human) (UniProt Q07817); remark: listed apart in the source
[5] = biological target: human BclxLΔLT (BclxL without the flexible loop and the transmembrane helix) (human, UniProt Q07817-1 1-212, flexible loop (residues 44–84) deleted); test: NMR
[6] = biological target: human BclxLΔLT (BclxL without the flexible loop and the transmembrane helix) (human) (UniProt Q07817); test: NMR titration; alanine scan: VDAC1-N peptides titrated into 100 µM 2H,15N-BclxLΔLT; 20 mM NaPi pH 7.0, 50 mM NaCl, 0.5 mM EDTA, 5 mM DTT; KD from chemical shift perturbations, one-site binding model
[7] = biological target: T3, human BclxLΔTM (soluble domain of BclxL, transmembrane helix deleted) (human, UniProt Q07817-1 1-212); test: NMR titration; 100 µM 15N-labelled VDAC1-N peptide with a 5-fold excess of unlabelled BclxLΔTM; 20 mM NaPi pH 7.0, 50 mM NaCl, 303 K, 500 MHz; conditions: both partners purified
T3 construct: BclxL, human, soluble domain without the transmembrane helix, residues 1-212 (the NMR methods say 1-213); 2H,15N-labelled where it was the observed species in NMR; source: E. coli BL21 (DE3), purified (Ni-NTA, SEC)

[8] = biological target: T4, human BclxLΔLT (BclxL without the flexible loop and the transmembrane helix) (human, UniProt Q07817-1 1-212, flexible loop (residues 44–84) deleted); test: crystal structure; single-chain BclxLΔLT-VDAC1-N construct, crystal from 1.6 M ammonium sulfate, 0.1 M bicine pH 9.0, 292 K; 1.95 Å; conditions: both partners purified
T4 construct: BclxL, human, residues 1-43 and 85-212 (flexible loop 44-84 and transmembrane helix deleted); the NMR methods say 1-44 and 85-213; Isotope-labelled for NMR; In the crystal it stood fused to VDAC1-N(1-26) on one chain; source: E. coli BL21 (DE3), purified (Ni-NTA, SEC)

T1 sequence (Q07817 with tags, fused parts or gaps DEL45-84 limits assumed): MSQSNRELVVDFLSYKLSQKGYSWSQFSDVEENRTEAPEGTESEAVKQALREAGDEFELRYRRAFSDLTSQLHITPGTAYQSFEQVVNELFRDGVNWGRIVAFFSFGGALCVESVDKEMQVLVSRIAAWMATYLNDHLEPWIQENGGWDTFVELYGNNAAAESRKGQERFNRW

Molecule: CC(C)C[C@H](NC(=O)[C@H](CC(=O)O)NC(=O)[C@H](C)NC(=O)[C@H](C)N)C(=O)NCC(=O)N[C@@H](CCCCN)C(=O)N[C@@H](CO)C(=O)N[C@@H](C)C(=O)N[C@@H](CCCNC(=N)N)C(=O)N[C@@H](CC(=O)O)C(=O)N[C@H](C(=O)N[C@@H](Cc1ccccc1)C(=O)N[C@H](C(=O)N[C@@H](CCCCN)C(=O)NCC(=O)O)[C@@H](C)O)C(C)C [Y7A] (H-AADLGKSARDVFTKG-OH)
Kd (BclxLΔLT): 446 µM

Molecule: CC(C)C[C@H](NC(=O)[C@H](CC(=O)O)NC(=O)[C@H](C)NC(=O)[C@@H](N)Cc1ccc(O)cc1)C(=O)NCC(=O)N[C@@H](CCCCN)C(=O)N[C@@H](CO)C(=O)N[C@@H](C)C(=O)N[C@@H](CCCNC(=N)N)C(=O)N[C@@H](CC(=O)O)C(=O)N[C@H](C(=O)N[C@@H](Cc1ccccc1)C(=O)N[C@H](C(=O)N[C@@H](CCCCN)C(=O)NCC(=O)O)[C@@H](C)O)C(C)C [VDAC1 wt]
Kd (BclxLΔLT): 165 µM

Molecule: CC(C)C[C@H](NC(=O)[C@H](CC(=O)O)NC(=O)[C@H](C)NC(=O)[C@@H](N)Cc1ccc(O)cc1)C(=O)NCC(=O)N[C@@H](CCCCN)C(=O)N[C@@H](CO)C(=O)N[C@@H](C)C(=O)N[C@@H](CCCNC(=N)N)C(=O)N[C@@H](CC(=O)O)C(=O)N[C@@H](C)C(=O)N[C@@H](Cc1ccccc1)C(=O)N[C@H](C(=O)N[C@@H](CCCCN)C(=O)NCC(=O)O)[C@@H](C)O [V17A] (H-YADLGKSARDAFTKG-OH)
Kd (BclxLΔLT): 713 µM

Molecule: CC(C)C[C@H](NC(=O)[C@H](CC(=O)O)NC(=O)[C@H](C)NC(=O)[C@@H](N)Cc1ccc(O)cc1)C(=O)N[C@@H](C)C(=O)N[C@@H](CCCCN)C(=O)N[C@@H](CO)C(=O)N[C@@H](C)C(=O)N[C@@H](CCCNC(=N)N)C(=O)N[C@@H](CC(=O)O)C(=O)N[C@H](C(=O)N[C@@H](Cc1ccccc1)C(=O)N[C@H](C(=O)N[C@@H](CCCCN)C(=O)NCC(=O)O)[C@@H](C)O)C(C)C [G11A] (H-YADLAKSARDVFTKG-OH)
Kd (BclxLΔLT): 609 µM

Molecule: CC(C)[C@H](NC(=O)[C@H](CC(=O)O)NC(=O)[C@H](CCCNC(=N)N)NC(=O)[C@H](C)NC(=O)[C@H](CO)NC(=O)[C@H](CCCCN)NC(=O)CNC(=O)[C@H](C)NC(=O)[C@H](CC(=O)O)NC(=O)[C@H](C)NC(=O)[C@@H](N)Cc1ccc(O)cc1)C(=O)N[C@@H](Cc1ccccc1)C(=O)N[C@H](C(=O)N[C@@H](CCCCN)C(=O)NCC(=O)O)[C@@H](C)O [L10A] (H-YADAGKSARDVFTKG-OH)
Kd (BclxLΔLT): 4030 µM

Molecule: CC(C)C[C@H](NC(=O)[C@H](C)NC(=O)[C@H](C)NC(=O)[C@@H](N)Cc1ccc(O)cc1)C(=O)NCC(=O)N[C@@H](CCCCN)C(=O)N[C@@H](CO)C(=O)N[C@@H](C)C(=O)N[C@@H](CCCNC(=N)N)C(=O)N[C@@H](CC(=O)O)C(=O)N[C@H](C(=O)N[C@@H](Cc1ccccc1)C(=O)N[C@H](C(=O)N[C@@H](CCCCN)C(=O)NCC(=O)O)[C@@H](C)O)C(C)C [D9A] (H-YAALGKSARDVFTKG-OH)
Kd (BclxLΔLT): 1070 µM

Molecule: CC(C)C[C@H](NC(=O)[C@H](CC(=O)O)NC(=O)[C@H](C)NC(=O)[C@@H](N)Cc1ccc(O)cc1)C(=O)NCC(=O)N[C@@H](CCCCN)C(=O)N[C@@H](CO)C(=O)N[C@@H](C)C(=O)N[C@@H](CCCNC(=N)N)C(=O)N[C@@H](CC(=O)O)C(=O)N[C@H](C(=O)N[C@@H](C)C(=O)N[C@H](C(=O)N[C@@H](CCCCN)C(=O)NCC(=O)O)[C@@H](C)O)C(C)C [F18A] (H-YADLGKSARDVATKG-OH)
Kd (BclxLΔLT): 367 µM

Molecule: CC(C)C[C@H](NC(=O)[C@H](CC(=O)O)NC(=O)[C@H](C)NC(=O)[C@@H](N)Cc1ccc(O)cc1)C(=O)NCC(=O)N[C@@H](CCCCN)C(=O)N[C@@H](CO)C(=O)N[C@@H](C)C(=O)N[C@@H](CCCNC(=N)N)C(=O)N[C@@H](C)C(=O)N[C@H](C(=O)N[C@@H](Cc1ccccc1)C(=O)N[C@H](C(=O)N[C@@H](CCCCN)C(=O)NCC(=O)O)[C@@H](C)O)C(C)C [D16A] (H-YADLGKSARAVFTKG-OH)
Kd (BclxLΔLT): 1260 µM

Molecule: CC(C)C[C@H](NC(=O)[C@H](CC(=O)O)NC(=O)[C@H](C)NC(=O)[C@@H](N)Cc1ccc(O)cc1)C(=O)N[C@@]1(C)CCCC=CCCC[C@@](C)(C(=O)N[C@@H](CC(=O)O)C(=O)N[C@H](C(=O)N[C@@H](Cc2ccccc2)C(=O)N[C@H](C(=O)N[C@@H](CCCCN)C(=O)NCC(=O)O)[C@@H](C)O)C(C)C)NC(=O)[C@H](C)NC(=O)[C@H](CO)NC(=O)[C@H](CCCCN)NC1=O [stVDAC1-N] (H-YADL[S5]KSA[S5]DVFTKG-OH; staple 5-9; N-terminus and C-terminus assumed)
effect on pore-forming activity of BclxL-inhibited Bak (in words) (Bak-BclxL complex): concentration-dependent rescue of the pore-forming activity of Bak

Kd [1]: 2000 nM
Molecule: hydrocarbon-stapled VDAC1 peptide encompassing residues 7–21 (stVDAC1-N) (from UniProt P21796 7-21)

Molecule: CC(C)C[C@H](NC(=O)[C@H](CC(=O)O)NC(=O)[C@H](C)NC(=O)[C@@H](N)Cc1ccc(O)cc1)C(=O)NCC(=O)N[C@@H](CCCCN)C(=O)N[C@@H](CO)C(=O)N[C@@H](C)C(=O)N[C@@H](CCCNC(=N)N)C(=O)N[C@@H](CC(=O)O)C(=O)N[C@H](C(=O)N[C@@H](Cc1ccccc1)C(=O)N[C@@H](C)C(=O)N[C@@H](CCCCN)C(=O)NCC(=O)O)C(C)C [T19A] (H-YADLGKSARDVFAKG-OH)
Kd (BclxLΔLT): 201 µM

rescue of cBid-activated Bak pore formation inhibited by BclxL (liposome permeabilization), 100 µM peptide [2]: 80%
Molecule: wild-type VDAC1-N peptide of the alanine scanning set

Molecule: CC(C)C[C@H](NC(=O)[C@H](CC(=O)O)NC(=O)[C@H](C)NC(=O)[C@@H](N)Cc1ccc(O)cc1)C(=O)NCC(=O)N[C@@H](CCCCN)C(=O)N[C@@H](C)C(=O)N[C@@H](C)C(=O)N[C@@H](CCCNC(=N)N)C(=O)N[C@@H](CC(=O)O)C(=O)N[C@H](C(=O)N[C@@H](Cc1ccccc1)C(=O)N[C@H](C(=O)N[C@@H](CCCCN)C(=O)NCC(=O)O)[C@@H](C)O)C(C)C [S13A] (H-YADLGKAARDVFTKG-OH)
Kd (BclxLΔLT): 408 µM

Kd [3]: 1000 µM
Molecule: MAVPPTYAALGKSARDVFTKGYGF [wild-type VDAC1-N peptide of the alanine scanning set D9A]

recovery of cBid-activated Bak pore formation inhibited by BclxL (liposome permeabilization); Bad-BH3 1 to 100 nM [4]: 50 nM
Molecule: NLWAAQRYGRELRRMSDEFEGSFKGL [Bad-BH3 peptide (residues 140–165)]

Kd [3]: 200 µM
Molecule: MAVPPTYADLGKSARDVFAKGYGF [wild-type VDAC1-N peptide of the alanine scanning set T19A]

Kd [3]: 400 µM
Molecule: MAVPPTAADLGKSARDVFTKGYGF [wild-type VDAC1-N peptide of the alanine scanning set Y7A]

Kd [3]: 500 µM
Molecule: MAVPPTYADLAKSARDVFTKGYGF [wild-type VDAC1-N peptide of the alanine scanning set G11A]

Kd [3]: 600 µM
Molecule: MAVPPTYADLGKSARDAFTKGYGF [wild-type VDAC1-N peptide of the alanine scanning set V17A]

Kd [3]: 4000 µM
Kd [5]: ~9 mM
fold reduction in affinity against wild-type VDAC1-N [6]: 20 fold
Molecule: MAVPPTYADAGKSARDVFTKGYGF [VDAC1-N L10A peptide]

binding result [7]: binds
binding result [8]: binds
B1: VDAC1-N peptide (residues 1–26) (peptide, UniProt P21796 1-26, looked up)
peptide: MAVPPTYADLGKSARDVFTKGYGFGL
notes: VDAC1, human, N-terminal residues 1-26; Isotope-labelled (13C and 15N) for NMR; The same stretch 1-26 stands fused to the C-terminus of BclxLΔLT in m8; the row of the crystal structure uses m6 for that stretch; also called VDAC1-N (1–26); 15N-labeled VDAC1-N; source: E. coli, as His6-GB1-TEV fusion, Ni-NTA, TEV digestion, reverse Ni-NTA; not shown: His6, N-terminal, cleaved; GB1, N-terminal, …

Kd [3]: 1200 µM
Molecule: MAVPPTYADLGKSARAVFTKGYGF [wild-type VDAC1-N peptide of the alanine scanning set D16A]

Kd [3]: 300 µM
Molecule: MAVPPTYADLGKSARDVATKGYGF [wild-type VDAC1-N peptide of the alanine scanning set F18A]

Kd [3]: 400 µM
Molecule: MAVPPTYADLGKAARDVFTKGYGF [wild-type VDAC1-N peptide of the alanine scanning set S13A]
